Publication PMC7954794, “Protein context shapes the specificity of SH3 domain-mediated interactions in vivo” (Nature Communications, 2021)

B1: S. cerevisiae Abp1 (full length; SH3 domain 535-592 mutated) / Hua2 (parent)
chain 1: MALEPIDYTTHSREIDAEYLKIVRGSDPDTTWLIISPNAKKEYEPESTGSSFHDFLQLFDETKVQYGLARVSPPGSDVEKIIIIGWCPDSAPLKTRASFAANFAAVANNLFKGYHVQVTARDEDDLDENELLMKISNAAGARYSIQTSSKQQGKASTPPVKKSFTPSKSPAPVSKKEPVKTPSPAPAAKISSRVNDNNDDDDWNEPELKERDFDQAPLKPNQSSYKPIGKIDLQKVIAEEKAKEDPRLVQKPTAAGSKIDPSSDIANLKNESKLKRDSEFNSFLGTTKPPSMTESSLKNDDDKVIKGFRNEKSPAQLWAERKAKQNSGNAETKAEAPKPEVPEDEPEGEPDVKDLKSKFEGLAASEKEEEEMENKFAPPPKKSEPTIISPKPFSKPQEPVKAEEAEQPKTDYKKIGNPLPGMHIEADNEEEPEENDDDWDDDEDEAAQPPLPSRNVASGAPVQKEEPEQEEIAPSLPSRNSIPAPKQEEAPEQAPEEEIEEEAEEAAPQLPSRSSAAPPPPPRRATPEKKPKENPWATAEYDYDAAEDNELTFVENDKIINIEFVDDDWWLGELEKDGSKGLFPSNYVSLGN
chain 2: MQQTKFGKMYLDHDSVVEYSEDEIVEADRITLGYKKRLSMIENQMRHLLEDFSLDVQQIEPILADLQKYYDAFLQLLQKRNKSLQCKRSTHQPVPSPMNSQTSTNAKVNLSGKLMKFQLNSVQKFDEENILRILQNKIEFEHYFQIDKGKKQKVLLLAVYQCLNGPTRLHKVLNIEGIIHNNSIRTILGKQVSSSKWTVFLYDVKLVLLAHRQDVPNLETSKMIVRYGDLFPCALYFKDHTAY

Variants of: B1
Assay: DHFR protein-fragment complementation in yeast (Abp1-DHFR F[1,2] x partner-DHFR F[3]), deep mutational scanning, second methotrexate selection vs reference
Settings: with Hua2; S. cerevisiae, DHFR-PCA selection in liquid with methotrexate at 30 C, two 72 h selections (the score uses the second); reference = the pre-selection culture; not an affinity; value at the no-binding floor (a bound); scale: DMS score: mean over two replicates of log2(f_test/f_ref + 0.5)/ln 2, minus the synonymous-codon median

Screen value, < -3.06:
chain 1 MALEPIDYTTHSREIDAEYLKIVRGSDPDTTWLIISPNAKKEYEPESTGSSFHDFLQLFDETKVQYGLARVSPPGSDVEKIIIIGWCPDSAPLKTRASFAANFAAVANNLFKGYHVQVTARDEDDLDENELLMKISNAAGARYSIQTSSKQQGKASTPPVKKSFTPSKSPAPVSKKEPVKTPSPAPAAKISSRVNDNNDDDDWNEPELKERDFDQAPLKPNQSSYKPIGKIDLQKVIAEEKAKEDPRLVQKPTAAGSKIDPSSDIANLKNESKLKRDSEFNSFLGTTKPPSMTESSLKNDDDKVIKGFRNEKSPAQLWAERKAKQNSGNAETKAEAPKPEVPEDEPEGEPDVKDLKSKFEGLAASEKEEEEMENKFAPPPKKSEPTIISPKPFSKPQEPVKAEEAEQPKTDYKKIGNPLPGMHIEADNEEEPEENDDDWDDDEDEAAQPPLPSRNVASGAPVQKEEPEQEEIAPSLPSRNSIPAPKQEEAPEQAPEEEIEEEAEEAAPQLPSRSSAAPPPPPRRATPEKKPKENPWATAEYDYDAAEDNELTFVENDKIINIEFVDDDWWLGELEKDGSKGLDPSNYVSLGN [chain 1 F583D]
chain 1 MALEPIDYTTHSREIDAEYLKIVRGSDPDTTWLIISPNAKKEYEPESTGSSFHDFLQLFDETKVQYGLARVSPPGSDVEKIIIIGWCPDSAPLKTRASFAANFAAVANNLFKGYHVQVTARDEDDLDENELLMKISNAAGARYSIQTSSKQQGKASTPPVKKSFTPSKSPAPVSKKEPVKTPSPAPAAKISSRVNDNNDDDDWNEPELKERDFDQAPLKPNQSSYKPIGKIDLQKVIAEEKAKEDPRLVQKPTAAGSKIDPSSDIANLKNESKLKRDSEFNSFLGTTKPPSMTESSLKNDDDKVIKGFRNEKSPAQLWAERKAKQNSGNAETKAEAPKPEVPEDEPEGEPDVKDLKSKFEGLAASEKEEEEMENKFAPPPKKSEPTIISPKPFSKPQEPVKAEEAEQPKTDYKKIGNPLPGMHIEADNEEEPEENDDDWDDDEDEAAQPPLPSRNVASGAPVQKEEPEQEEIAPSLPSRNSIPAPKQEEAPEQAPEEEIEEEAEEAAPQLPSRSSAAPPPPPRRATPEKKPKENPWATAEYDYDAAEDNELTFVENDKIINIEFVDDDWWLGELEKDGSKGLEPSNYVSLGN [chain 1 F583E]
chain 1 MALEPIDYTTHSREIDAEYLKIVRGSDPDTTWLIISPNAKKEYEPESTGSSFHDFLQLFDETKVQYGLARVSPPGSDVEKIIIIGWCPDSAPLKTRASFAANFAAVANNLFKGYHVQVTARDEDDLDENELLMKISNAAGARYSIQTSSKQQGKASTPPVKKSFTPSKSPAPVSKKEPVKTPSPAPAAKISSRVNDNNDDDDWNEPELKERDFDQAPLKPNQSSYKPIGKIDLQKVIAEEKAKEDPRLVQKPTAAGSKIDPSSDIANLKNESKLKRDSEFNSFLGTTKPPSMTESSLKNDDDKVIKGFRNEKSPAQLWAERKAKQNSGNAETKAEAPKPEVPEDEPEGEPDVKDLKSKFEGLAASEKEEEEMENKFAPPPKKSEPTIISPKPFSKPQEPVKAEEAEQPKTDYKKIGNPLPGMHIEADNEEEPEENDDDWDDDEDEAAQPPLPSRNVASGAPVQKEEPEQEEIAPSLPSRNSIPAPKQEEAPEQAPEEEIEEEAEEAAPQLPSRSSAAPPPPPRRATPEKKPKENPWATAEYDYDAAEDNELTFVENDKIINIEFVDDDWWLGELEKDGSKGLGPSNYVSLGN [chain 1 F583G]
chain 1 MALEPIDYTTHSREIDAEYLKIVRGSDPDTTWLIISPNAKKEYEPESTGSSFHDFLQLFDETKVQYGLARVSPPGSDVEKIIIIGWCPDSAPLKTRASFAANFAAVANNLFKGYHVQVTARDEDDLDENELLMKISNAAGARYSIQTSSKQQGKASTPPVKKSFTPSKSPAPVSKKEPVKTPSPAPAAKISSRVNDNNDDDDWNEPELKERDFDQAPLKPNQSSYKPIGKIDLQKVIAEEKAKEDPRLVQKPTAAGSKIDPSSDIANLKNESKLKRDSEFNSFLGTTKPPSMTESSLKNDDDKVIKGFRNEKSPAQLWAERKAKQNSGNAETKAEAPKPEVPEDEPEGEPDVKDLKSKFEGLAASEKEEEEMENKFAPPPKKSEPTIISPKPFSKPQEPVKAEEAEQPKTDYKKIGNPLPGMHIEADNEEEPEENDDDWDDDEDEAAQPPLPSRNVASGAPVQKEEPEQEEIAPSLPSRNSIPAPKQEEAPEQAPEEEIEEEAEEAAPQLPSRSSAAPPPPPRRATPEKKPKENPWATAEYDYDAAEDNELTFVENDKIINIEFVDDDWWLGELEKDGSKGLHPSNYVSLGN [chain 1 F583H]
chain 1 MALEPIDYTTHSREIDAEYLKIVRGSDPDTTWLIISPNAKKEYEPESTGSSFHDFLQLFDETKVQYGLARVSPPGSDVEKIIIIGWCPDSAPLKTRASFAANFAAVANNLFKGYHVQVTARDEDDLDENELLMKISNAAGARYSIQTSSKQQGKASTPPVKKSFTPSKSPAPVSKKEPVKTPSPAPAAKISSRVNDNNDDDDWNEPELKERDFDQAPLKPNQSSYKPIGKIDLQKVIAEEKAKEDPRLVQKPTAAGSKIDPSSDIANLKNESKLKRDSEFNSFLGTTKPPSMTESSLKNDDDKVIKGFRNEKSPAQLWAERKAKQNSGNAETKAEAPKPEVPEDEPEGEPDVKDLKSKFEGLAASEKEEEEMENKFAPPPKKSEPTIISPKPFSKPQEPVKAEEAEQPKTDYKKIGNPLPGMHIEADNEEEPEENDDDWDDDEDEAAQPPLPSRNVASGAPVQKEEPEQEEIAPSLPSRNSIPAPKQEEAPEQAPEEEIEEEAEEAAPQLPSRSSAAPPPPPRRATPEKKPKENPWATAEYDYDAAEDNELTFVENDKIINIEFVDDDWWLGELEKDGSKGLKPSNYVSLGN [chain 1 F583K]
